13 molecules from patent US7399833 (dated 2008) can be followed below.

The labels stand for the following.
T1: Mpl-X (the soluble extra-cellular domain of the Mpl receptor) (human, UniProt P40238 26-491, coupled to CNBr activated Sepharose resin)
T1 construct: extracellular domain; also called hu-MPL-X
T1 sequence (looked up): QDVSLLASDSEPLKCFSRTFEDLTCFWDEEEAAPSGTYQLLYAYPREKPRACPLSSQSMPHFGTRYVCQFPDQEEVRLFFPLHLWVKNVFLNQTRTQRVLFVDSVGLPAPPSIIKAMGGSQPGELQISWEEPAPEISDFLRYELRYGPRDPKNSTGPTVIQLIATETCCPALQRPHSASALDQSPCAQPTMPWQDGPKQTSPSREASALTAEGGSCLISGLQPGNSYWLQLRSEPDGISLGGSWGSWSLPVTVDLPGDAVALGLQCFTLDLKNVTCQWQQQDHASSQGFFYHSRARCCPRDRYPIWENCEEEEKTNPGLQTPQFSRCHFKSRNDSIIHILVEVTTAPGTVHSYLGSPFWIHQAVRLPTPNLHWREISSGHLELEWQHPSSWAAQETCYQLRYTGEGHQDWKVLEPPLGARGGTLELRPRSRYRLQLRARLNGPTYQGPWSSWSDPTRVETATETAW

B1: CHO-derived MGDF 1-153 (ligand)
chain: SPAPPACDLRVLSKLLRDSHVLHSRLSQCPEVHPLPTPVLLPAVDFSLGEWKTQMEETKAQDILGAVTLLLEGVMAARGQLGPTCLSSLLGQLSGQVRLLLGALQSLLGTQLPPQGRTTAHKDPNAIFLSFQHLLRGKVRFLMLVGGSTLCVR
modifications: CHO-expressed material carries O-linked carbohydrate, which the letters do not show.
notes: see the note on m1; also called r-HuMGDF 1-153 (CHO)
B2: CHO-derived MGDF 1-163 (ligand)
chain: SPAPPACDLRVLSKLLRDSHVLHSRLSQCPEVHPLPTPVLLPAVDFSLGEWKTQMEETKAQDILGAVTLLLEGVMAARGQLGPTCLSSLLGQLSGQVRLLLGALQSLLGTQLPPQGRTTAHKDPNAIFLSFQHLLRGKVRFLMLVGGSTLCVRRAPPTTAVPS
modifications: CHO-expressed material carries O-linked carbohydrate, which the letters do not show.
notes: see the note on m1; also called r-HuMGDF 1-163 (CHO)

Where “and” joins values, the source holds several entries; their conditions need not be identical. Equal values may be shown once.

One test has as its target full length human Mpl receptor on 32D-MPL cells (human) (UniProt P40238). Description: cell-based or functional assay.
For [Asn25] MGDF 1-174 (ligand), the In Vitro Activity (units/ml), 32D-MPL cell proliferation was 636 units/ml and the Specific Activity (units/ng), 32D-MPL cell proliferation / MGDF ELISA came out at 344 units/ng. As for “[Asn30, Thr32, Asn120, Thr122] MGDF 1-174 (ligand)”, the In Vitro Activity (units/ml), 32D-MPL cell proliferation stood at 6420 units/ml and the Specific Activity (units/ng), 32D-MPL cell proliferation / MGDF ELISA is 247 units/ng.

Turning to [Asn30, Thr32] MGDF 1-174 (ligand), the In Vitro Activity (units/ml), 32D-MPL cell proliferation worked out at 8830 units/ml and the Specific Activity (units/ng), 32D-MPL cell proliferation / MGDF ELISA was 232 units/ng.

The molecule [Asn38, Thr40] MGDF 1-174 (ligand) yielded an In Vitro Activity (units/ml), 32D-MPL cell proliferation of less than 10 units/ml and a Specific Activity (units/ng), 32D-MPL cell proliferation / MGDF ELISA of less than 8 units/ng. Taken in the same sequence, the figures for [Asn53, Thr55] MGDF 1-174 (ligand) were 18000 units/ml and 269 units/ng. As to [Asn58, Thr60] MGDF 1-174 (ligand), the In Vitro Activity (units/ml), 32D-MPL cell proliferation stood at 4850 units/ml and the Specific Activity (units/ng), 32D-MPL cell proliferation / MGDF ELISA was found to be 271 units/ng. As for [Asn82, Ala83] MGDF 1-174 (ligand), the In Vitro Activity (units/ml), 32D-MPL cell proliferation is 2660 units/ml and 3080 units/ml; the Specific Activity (units/ng), 32D-MPL cell proliferation / MGDF ELISA is 443 units/ng and 655 units/ng. For [Asn86] MGDF 1-174 (ligand), the In Vitro Activity (units/ml), 32D-MPL cell proliferation was less than 10 units/ml and the Specific Activity (units/ng), 32D-MPL cell proliferation / MGDF ELISA was less than 22 units/ng.

[Asn92] MGDF 1-174 (ligand): the In Vitro Activity (units/ml), 32D-MPL cell proliferation turned out to be 1970 units/ml and the Specific Activity (units/ng), 32D-MPL cell proliferation / MGDF ELISA stood at 188 units/ng. In the case of [Asn120, Thr122] MGDF 1-174 (ligand), the In Vitro Activity (units/ml), 32D-MPL cell proliferation was 5940 units/ml and 9690 units/ml; the Specific Activity (units/ng), 32D-MPL cell proliferation / MGDF ELISA was 291 units/ng and 288 units/ng. “[Ser36, Asn38, Thr40] MGDF 1-174 (ligand)” had an In Vitro Activity (units/ml), 32D-MPL cell proliferation of less than 10 units/ml and a Specific Activity (units/ng), 32D-MPL cell proliferation / MGDF ELISA of less than 8 units/ng.

The target in the next test is T1, Mpl-X (the soluble extra-cellular …). Briefly: Mpl-receptor affinity chromatography.
Turning to B1, the binding result is recorded as “binds”. Regarding B2, the binding result is on record as “binds”.
